This note sets out measurements from patent US20070093443A1.

The assay deals with Complement C2 (human) (human) (UniProt P06681). Briefly: cell-based or functional assay.
Complement C2 (human) (human), sequence (P06681 21-752 limits assumed): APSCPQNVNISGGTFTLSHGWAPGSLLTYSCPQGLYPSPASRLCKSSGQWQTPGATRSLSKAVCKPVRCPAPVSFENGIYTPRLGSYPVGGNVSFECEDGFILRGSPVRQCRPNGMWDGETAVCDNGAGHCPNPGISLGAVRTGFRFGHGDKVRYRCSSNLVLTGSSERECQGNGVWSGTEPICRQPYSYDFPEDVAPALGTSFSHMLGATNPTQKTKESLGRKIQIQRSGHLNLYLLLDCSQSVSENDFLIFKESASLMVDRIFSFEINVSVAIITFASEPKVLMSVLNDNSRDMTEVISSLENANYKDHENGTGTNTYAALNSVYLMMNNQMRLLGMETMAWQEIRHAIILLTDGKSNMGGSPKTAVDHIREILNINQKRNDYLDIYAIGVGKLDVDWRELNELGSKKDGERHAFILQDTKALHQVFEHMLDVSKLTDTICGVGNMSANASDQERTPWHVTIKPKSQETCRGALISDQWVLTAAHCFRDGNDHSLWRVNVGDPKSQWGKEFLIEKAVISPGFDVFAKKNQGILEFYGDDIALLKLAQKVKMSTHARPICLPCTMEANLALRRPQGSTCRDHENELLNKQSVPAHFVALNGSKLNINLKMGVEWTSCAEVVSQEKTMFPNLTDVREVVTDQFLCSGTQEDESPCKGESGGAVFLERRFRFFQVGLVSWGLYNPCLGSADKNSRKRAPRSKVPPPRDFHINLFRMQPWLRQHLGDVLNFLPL

“modified MT-SP1 CB42 (Y146E) protease domain (from UniProt Q9Y5Y6 615-855) (enzyme)” registered an IC50 of the proteases for cleavage of C2 (Western blot densitometry, 5% human plasma, 1 h 37 C) of 11.9 nM.

As for “wildtype MT-SP1 protease domain (CB200) (from UniProt Q9Y5Y6 615-855) (enzyme)”, the IC50 of the proteases for cleavage of C2 (Western blot densitometry, 5% human plasma, 1 h 37 C) amounted to 15.7 nM.
